# Measurements: US20190300618A1 (Merck Sharp & Dohme, published 2019)
# Residue numbers refer to the chain shown, from its start.
# B1: Antibody hCD27.131A (mouse parental 131A) (antibody, V domains shown)
# VH: QIQLVQSGPELKKPGETVKISCKASGYTFTNYGMNWVKQAPGKGLKWMGWINTNTGEPTYAEEFKGRFAFSLETSATTAYLQINNLKNEDTATYFCAREGDAMDYWGQGTSVTVSS
# VL: QIVLTQSPAIMSASPGEKVTMTCSASSSVSYMHWYQQKSGTSPKRWIYDTSKLASGVPARFSGSGSGTSYSLTISSMEAEDAATYYCQQWNSYPFTFGSGTKLEIK
# notes: mouse IgG1; also called mouse hCD27.131A
# What was measured:
# Test in all cases: flow cytometry, CHO-K1; sub-column 2 of 2
# F28A = target: T1, F28A
# T1 construct: also called hCD27 F28A
# T1 receptor: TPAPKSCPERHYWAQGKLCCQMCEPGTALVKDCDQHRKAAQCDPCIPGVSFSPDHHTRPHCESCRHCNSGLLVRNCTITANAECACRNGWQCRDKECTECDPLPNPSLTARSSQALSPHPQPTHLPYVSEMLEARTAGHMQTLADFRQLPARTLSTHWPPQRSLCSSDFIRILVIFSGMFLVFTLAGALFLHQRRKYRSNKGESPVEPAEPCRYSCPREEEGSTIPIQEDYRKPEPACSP
# D32A = target: T2, D32A
# T2 construct: also called hCD27 D32A
# T2 receptor: T1 receptor with A28F, D32A
# R10A = target: T3, R10A
# T3 construct: also called hCD27 R10A
# T3 receptor: T1 receptor with R10A, A28F
# R93A = target: T4, R93A
# T4 construct: also called hCD27 R93A
# T4 receptor: T1 receptor with A28F, R93A
# H36A = target: T5, H36A
# T5 construct: also called hCD27 H36A
# T5 receptor: T1 receptor with A28F, H36A
# D43A = target: T6, D43A
# T6 construct: also called hCD27 D43A
# T6 receptor: T1 receptor with A28F, D43A
# R37A = target: T7, R37A
# T7 construct: also called hCD27 R37A
# T7 receptor: T1 receptor with A28F, R37A
# W13A = target: T8, W13A
# T8 construct: also called hCD27 W13A
# T8 receptor: T1 receptor with W13A, A28F
# R87A = target: T9, R87A
# T9 construct: also called hCD27 R87A
# T9 receptor: T1 receptor with A28F, R87A
# S63A = target: T10, S63A
# T10 construct: also called hCD27 S63A
# T10 receptor: T1 receptor with A28F, S63A
Molecule,% of WT hCD27 binding (geo mean FITC) (F28A) [%],% of WT hCD27 binding (geo mean FITC) (D32A) [%],% of WT hCD27 binding (geo mean FITC) (R10A) [%],% of WT hCD27 binding (geo mean FITC) (R93A) [%],% of WT hCD27 binding (geo mean FITC) (H36A) [%],% of WT hCD27 binding (geo mean FITC) (D43A) [%],% of WT hCD27 binding (geo mean FITC) (R37A) [%],% of WT hCD27 binding (geo mean FITC) (W13A) [%],% of WT hCD27 binding (geo mean FITC) (R87A) [%],% of WT hCD27 binding (geo mean FITC) (S63A) [%]
1A4 (mouse IgG1) (antibody),60,8.7,113,91.1,85.2,93.4,87,93.4,108,163
9F4 (mouse IgG2a) (antibody),58.2,66.3,99,91.1,66.5,92.5,6.2,86.5,98.8,149
B1,57.1,62.1,108,90,10.8,96.2,9.6,88.6,111,141
